{
  "source": "paper PMC12333375",
  "key": {"[1]": {"biological_target": "AAV8 capsid (adeno-associated virus serotype 8 capsid) (adeno-associated virus serotype 8 (AAV8)) (UniProt Q8JQF8)", "assay": "SEC-MALS; offline native SEC (AdvanceBio SEC 300 x 7.8 mm, 2.7 um, 500 A) with 20-angle MALS and DAD at 260 and 280 nm; 1:1 (v/v) mixture of empty and full AAV8 capsids; 200 mM ammonium acetate, 1.0 mL/min, 6 replicates; capsid dimer against capsid monomer by peak area"}, "[2]": {"biological_target": "AAV8 capsid (adeno-associated virus serotype 8 capsid) (adeno-associated virus serotype 8 (AAV8)) (UniProt Q8JQF8)", "assay": "native MS; orbitrap-based charge detection-mass spectrometry (CD-MS) of nSEC fraction F2 (capsid dimers), infused by CE with sheath liquid interface at about 80 nL/min, 200 mM ammonium acetate, nano ESI, triplicates"}},
  "data": [
    {"substance": "AAV8 capsid (adeno-associated virus serotype 8 capsid) (from UniProt Q8JQF8 1-738) (complex)", "values": [
      {"measurement": "% AAV8 capsid dimer (peak area, absorbance at 260 nm)", "setting": "[1]", "result": 0.9, "unit": "%"},
      {"measurement": "% AAV8 capsid dimer (peak area, absorbance at 280 nm)", "setting": "[1]", "result": 1, "unit": "%"},
      {"measurement": "stoichiometry N", "setting": "[1]", "result": 2},
      {"measurement": "% empty capsid dimers (CD-MS)", "setting": "[2]", "result": 1, "unit": "%"},
      {"measurement": "% filled capsid dimers (CD-MS)", "setting": "[2]", "result": 3, "unit": "%"},
      {"measurement": "stoichiometry N", "setting": "[2]", "result": 2}
    ]}
  ]
}
